B1: purified native Lol p V: Lol p V allergens affinity-purified from ryegrass pollen on mAb 1B9 column (protein)
chain: ADAGYTPAAAATPATPAATPAAAGGKATTDEQKLLEDVNAGFKAAVAAAANAPPADKFKIFEAAFSESSKGLLATSAAKAPGLIPKLDTAYDVAYKAAEGATPEAKYDAFVTALTEALRVIAGALEVHAVKPATEEVPAAKIPTGELQIVDKIDAAFKIAATAANAAPTNDKFTVFESAFNKALNECTGGAYETYKFIPSLEAAVKQAYAATVAAAPEVKYAVFEAALTKAITAMTQAQKAGKPAAAAATGAATVATGAATAAAGAATAAAGGYKA
modifications: non-natural residues
B2: rLol p V: bacterially expressed recombinant Lol p V encoded by clone 12R, with His6 sequence (protein)
chain: MHHHHHHMAVQKYTVALFLAVALVAGPAASYAADAGYTPAAAATPATPAATPAAAGGKATTDEQKLLEDVNAGFKAAVAAAANAPPADKFKIFEAAFSESSKGLLATSAAKAPGLIPKLDTAYDVAYKAAEGATPEAKYDAFVTALTEALRVIAGALEVHAVKPATEEVPAAKIPTGELQIVDKIDAAFKIAATAANAAPTNDKFTVFESAFNKALNECTGGAYETYKFIPSLEAAVKQAYAATVAAAPEVKYAVFEAALTKAITAMTQAQKAGKPAAAAATGAATVATGAATAAAGAATAAAGGYKA
B3: Lol p V: major ryegrass (Lolium perenne) pollen protein allergen (protein)
chain: B2 chain

Legend:
Lol p V reactive T Cells = assay: T cell proliferation (tritiated thymidine) of Lol p V-primed T cell lines from grass-allergic patients; type: cell-based, human; conditions: one allergic patient; results not shown
Excerpt: As discussed in Example 2, human T cell stimulating activity can be tested by culturing T cells obtained from an individual sensitive to Lol p V allergen, (i.e., an individual who has an IgE mediated immune response to Lol p V allergen) with a peptide derived from the allergen and determining whether proliferation of T cells occurs in response to the peptide as measured, e.g., by cellular uptake of tritiated thymidine. Stimulation indices for responses by T cells to peptides can be calculated as the maximum CPM in response to a peptide divided by the control CPM. A stimulation index (S.I.) equal to or greater than two times the background level is considered “positive”. […]
In addition, preferred peptides have a positivity index (P.I.) of at least about 60, more preferably about 100, more preferably at least about 200 and most preferably at least about 300. The positivity index for a peptide is determined by multiplying the mean T cell stimulation index by the percent of individuals, in a population of individuals sensitive to ryegrass pollen (e.g., preferably a population of at least 15 individuals, more preferably a population of at least 30 individuals or more), who have a T cell stimulation index to such peptide of at least 2.0. […]
This amount of priming antigen was determined to be optimal for the activation of T cells from most grass-allergic patients. […]

[1] = system: human basophil mediator release; assay: Histamine release assay on whole blood of a ryegrass allergic individual; type: cell-based; conditions: one ryegrass allergic individual; whole heparinized blood; 37° C., 30 minutes; FIG. 12
Method: A histamine release assay was performed on one ryegrass allergic individual, using Lol p SPE and rLol p V as the added antigens. This assay is a measure of IgE reactivity through human basophil mediator release, and it is based on the detection of an acylated derivative of histamine using a specific monoclonal antibody (Morel, A. M. and Delaage, M. A.; 1988, J. Allergy Clin. Immunol. 82: 646–654). The reagents for this radioimmunoassay are sold as a kit by Amac Inc. (Westbrook, Me.). Whole heparinized blood drawn from a grass allergic individual and then […] aliquots were mixed with an equal amount of the grass antigens SPE and rLol p V at various concentrations or the diluent, PACM buffer (25 mM PIPES, 100 mM NaCl, 5 mM KCL, 4 mM CaCl2, 1 mM MgCl2, 0.003% HSA, pH7.3) in 1.5 ml polypropylene. The release reactions were carried out at 37° C. for 30 minutes. After this incubation the samples were centrifuged at 1500 RPM for 3 minutes and the supernatants removed. For the total histamine release, 0.1 ml of blood was added to 0.9 ml of PACM buffer, vortexed, and then boiled for 3 minutes. The samples were spun at 13000 RPM and the supernatant removed for analysis. Duplicate samples were used to measure total release. All of the supernatants are diluted 1:4 in acylation buffer and the remainder of the assay is performed according to the manufacturer's instructions.

human IgE [2] = assay: Direct ELISA of human IgE binding to coated antigen
Method: (§1) To examine the importance of Lol p V, both direct and competition ELISA assays were performed. In the direct ELISA, 100 μl of 10 μg/ml of antigen in Phosphate Buffered Saline, pH 7.4 (PBS) was used to coat Immulon II (Dynatech, Chantilly, Va.) 96 well plates for 4 hours at room temperature (RT) or overnight (O/N) at 4° C. In between each step the plates were washed 3× with PBS-T. The excess coating antigen(s) was removed and the wells blocked with 300 μl/well 0.5% gelatin +1 mg/ml PVP in PBS for 1 hour at RT. Serially diluted patient plasma or the diluent PBS+0.05% Tween^−20 was incubated in at 100 μl/well in duplicate wells overnight at 4° C. […] Plates were read on a MR7000 plate reader (Dynatech, Chantilly, Va.) with a 450 nm filter. The absorbance levels of duplicate wells were averaged. The results were graphed as absorbance vs. dilution. […] The results are plotted as the absorbance vs. the log of the concentration of competing antigen.
For the direct ELISA, wells were coated with either soluble pollen extract (SPE) of ryegrass pollen or rLol p V (purified native Lol p V may have a small amount of Lol p I; use of recombinant material assures that the IgE binding is only to Lol p V) and human IgE antibody binding to these antigens was analyzed. […]

specific IgE = conditions: immunoblotting; WO 93/04174, page 65; cited from earlier work
human IgE [3] = assay: Competition ELISA for IgE binding to ryegrass pollen SPE; conditions: IgE source PHP-A or individual patient plasma; FIGS. 10 and 11
Method: as §1
In the competition assay, ELISA wells were coated with ryegrass pollen SPE and then allergic patient IgE binding was measured in the presence of competing ryegrass pollen SPE, purified native Lol p V, or rLol p V. The source of allergic IgE in this assay was PHP-A (FIG. 10) or individual patient plasma (FIG. 11). […]

Row | Molecule | T cell proliferative response of one patient (Lol p V reactive T Cells) | histamine release [1] | IgE binding in direct ELISA (human IgE [2]; IgE source PHP-A, PHP-B or four individual patients, FIGS. 6-9) | IgE binding in direct ELISA (reactivity to Lol p V peptides) (human IgE [2]; IgE source PHP-B, preliminary assay, FIG. 13a and 13b) | ryegrass pollen sensitive patients possessing specific IgE antibody that bound (specific IgE) | competition for IgE binding to ryegrass pollen SPE (human IgE [3])
1 | B1 | responds well | – | – | – | – | –
2 | B2 | responds well | strong histamine release over a wide concentration range | high IgE binding | very high IgE binding | – | –
3 | B3 | – | – | – | – | 80% | significant portion of IgE against Lol p SPE is specific for Lol p V

— patent publication US7112333B1, “T cell epitopes of ryegrass pollen allergen” (Heska Corporation, priority 1994, dated 2006)
